The labels stand for the following.
T1: Lec domain of ADGRL3 (human, UniProt Q9HAR2 24-126, biotin on the Avi-tag (BirA) in the flow cytometry experiments)
T1 chain: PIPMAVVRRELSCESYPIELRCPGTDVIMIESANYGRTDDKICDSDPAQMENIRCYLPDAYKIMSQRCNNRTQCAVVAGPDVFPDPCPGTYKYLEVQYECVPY

B1: full-length extracellular region (ECR) of ADGRL3 (domain or fragment)
chain 1: FSRAPIPMAVVRRELSCESYPIELRCPGTDVIMIESANYGRTDDKICDSDPAQMENIRCYLPDAYKIMSQRCNNRTQCAVVAGPDVFPDPCPGTYKYLEVQYECVPYKVEQKVFLCPGLLKGVYQSEHLFESDHQSGAWCKDPLQASDKIYYMPWTPYRTDTLTEYSSKDDFIAGRPTTTYKLPHRVDGTGFVVYDGALFFNKERTRNIVKFDLRTRIKSGEAIIANANYHDTSPYRWGGKSDIDLAVDENGLWVIYATEQNNGKIVISQLNPYTLRIEGTWDTAYDKRSASNAFMICGILYVVKSVYEDDDNEATGNKIDYIYNTDQSKDSLVDVPFPNSYQYIAAVDYNPRDNLLYVWNNYHVVKYSLDFGPLDSRSGQAHHGQVSYISPPIHLDSELERPSVKDISTTGPLGMGSTTTSTTLRTTTLSPGRSTTPSVSGRRNRSTSTPSPAVEVLDDMTTHLPSASSQIPALEESCEAVEAREIMWFKTRQGQIAKQPCPAGTIGVSTYLCLAPDGIWDPQGPDLSNCSSPWVNHITQKLKSGETAANIARELAEQTRNHLNAGDITYSVRAMDQLVGLLDVQLRNLTPGGKDSAARSLNKAMVETVNNLLQPQALNAWRDLTTSDQLRAATMLLHTVEESAFVLADNLLKTDIVRENTDNIKLEVARLSTEGNLEDLKFPENMGHGSTIQLSANTLKQNGRNGEIRVAFVLYNNLGPYLSTENASMKLGTEALSTNHSVIVNSPVITAAINKEFSNKVYLADPVVFTVKHIKQSEENFNPNCSFWSYSKRTMTGYWSTQGCRLLTTNKTHTTCSCNHL
chain 2: TNFAVLMAHVEVKHSDAVHDL
modifications: biotin on the Avi-tag (BirA) where used biotinylated
B2: synthetic antibody fragment (sAB) LK30 (Fab, V domains shown)
VH: EVQLVESGGGLVQPGGSLRLSCAASGFNIYYSSIHWVRQAPGKGLEWVAYISPYSGSTSYADSVKGRFTISADTSKNTAYLQMNSLRAEDTAVYYCARYKYGQGHMGAFDYWGQGTLVTVSS
VL: DIQMTQSPSSLSASVGDRVTITCRASQSVSSAVAWYQQKPGKAPKLLIYSASSLYSGVPSRFSGSRSGTDFTLTISSLQPEDFATYYCQQSNTELVTFGQGTKVEIK
B3: ADGRL3 Lec/Olf fragment (domain or fragment)
chain: PIPMAVVRRELSCESYPIELRCPGTDVIMIESANYGRTDDKICDSDPAQMENIRCYLPDAYKIMSQRCNNRTQCAVVAGPDVFPDPCPGTYKYLEVQYECVPYKVEQKVFLCPGLLKGVYQSEHLFESDHQSGAWCKDPLQASDKIYYMPWTPYRTDTLTEYSSKDDFIAGRPTTTYKLPHRVDGTGFVVYDGALFFNKERTRNIVKFDLRTRIKSGEAIIANANYHDTSPYRWGGKSDIDLAVDENGLWVIYATEQNNGKIVISQLNPYTLRIEGTWDTAYDKRSASNAFMICGILYVVKSVYEDDDNEATGNKIDYIYNTDQSKDSLVDVPFPNSYQYIAAVDYNPRDNLLYVWNNYHVVKYSLDFGPLD

The target in one test is LK25. The test can be described thus: ELISA. (ELISA stands for enzyme-linked immunosorbent assay.)
The target of the next test is LK12. The test can be described thus: SPR.
The target in another test is LK29. The test can be described thus: SPR. In general terms: SPR reads the build-up and loss of mass on a sensor chip optically.
Another test addresses LK31. The test can be described thus: SPR.
For a further test, the target named is T1, Lec domain of ADGRL3. The experiment in a line: SPR.
Test [1] addresses B1. The test can be described thus: SPR.
The target in test [2] is B3. The test can be described thus: SPR.
The target of test [3] is B1. The test can be described thus: SPR.
The target in test [4] is B3. The test can be described thus: SPR.

Where “and” joins values, the source holds several entries; their conditions need not be identical. Equal entries are not always repeated.

Results on three molecules are retold here after article PMC9902482 (2023).

As usually defined, the Kd is the constant that tells how readily two partners part at equilibrium. Higher therefore signals weaker binding. In general, koff refers to a measure of how fast the partners let go of each other. A low value points to slow dissociation.

Take B1: the Kd came to 56.8 nM with LK25, 8.3 nM with LK12, 4.1 nM in the test with LK29 and 3.8 nM in the test with LK31. The off-rate constant (koff) in the test with LK12 is 0.0032 s⁻¹; in the test with LK29, 0.0015 s⁻¹; with LK31 it was 0.002 s⁻¹.
Take B2: the koff with Lec domain of ADGRL3 is 0.0113 s⁻¹; in test [1] it was 0.0058 s⁻¹; in the test with ADGRL3 Lec/Olf fragment [2] it was 0.0066 s⁻¹ and 0.0049 s⁻¹. Moreover, the Kd in test [3] was 4.2 nM; with ADGRL3 Lec/Olf fragment [4], 5.4 nM and 3.7 nM.
As to B3, the Kd in the test with LK12 was 12.5 nM; in the test with LK29, 2.5 nM; in the test with LK31 it was 3.6 nM. The koff in the test with LK12 amounted to 0.0099 s⁻¹; with LK29, 0.001 s⁻¹; in the test with LK31, 0.0029 s⁻¹.
